Data as given in publication PMC10711807.

Target: TOLLIP, recombinant from bacteria, biotinylated (human), Q9H0E2
Assay: BLI
Conditions: remark: other sources report otherwise

B1: IRAK1, recombinant from bacteria, P51617 1-712 (enzyme)
chain: MAGGPGPGEPAAPGAQHFLYEVPPWVMCRFYKVMDALEPADWCQFAALIVRDQTELRLCERSGQRTASVLWPWINRNARVADLVHILTHLQLLRARDIITAWHPPAPLPSPGTTAPRPSSIPAPAEAEAWSPRKLPSSASTFLSPAFPGSQTHSGPELGLVPSPASLWPPPPSPAPSSTKPGPESSVSLLQGARPFPFCWPLCEISRGTHNFSEELKIGEGGFGCVYRAVMRNTVYAVKRLKENADLEWTAVKQSFLTEVEQLSRFRHPNIVDFAGYCAQNGFYCLVYGFLPNGSLEDRLHCQTQACPPLSWPQRLDILLGTARAIQFLHQDSPSLIHGDIKSSNVLLDERLTPKLGDFGLARFSRFAGSSPSQSSMVARTQTVRGTLAYLPEEYIKTGRLAVDTDTFSFGVVVLETLAGQRAVKTHGARTKYLKDLVEEEAEEAGVALRSTQSTLQAGLAADAWAAPIAMQIYKKHLDPRPGPCPPELGLGLGQLACCCLHRRAKRRPPMTQVYERLEKLQAVVAGVPGHSEAASCIPPSPQENSYVSSTGRAHSGAAPWQPLAAPSGASAQAAEQLQRGPNQPVESDESLGGLSAALRSWHLTPSCPLDPAPLREAGCPQGDTAGESSWGSGPGSRPTAVEGLALGSSASSSSEPPQIIINPARQKMVQKLALYEDGALDSLQLLSSSSLPGLGLEQDRQGPEESDEFQS
modifications: here or on the partner: biotin (biotinylated TOLLIP; site not told)
Kd: 91.5 nM
